B2: MHAS2168 (natural protein, Mycobacterium hassiacum)
chain: MSAFPQTPNRLIRPRRTSRGIAISAGGLAVLLGALDTYVVVSIVTDIMRDVGIAVNQIQRVTPIITGYLLGYIAAMPLLGRASDRFGRKLLIQISLAGFALGSVITALATNLDVLVAGRVIQGAASGALLPVTLALAADLWATHKRAAVLGGVGAAQELGAVLGPIYGIFVVWLFHHWQAVFWVNVPLALIAMVLIHISLPPRVRTEEPQRVDVTGGLLLALALGLATIGLYNAEPDGKQVLPEYGPPLIIGAVIAAVAFLVWERFARTRLLDPAGVRFRPFLIALLVSLVTGGALMVTLVNVELFGQGVLGLDQDEAVFLLARFLIALPVGALLGGWIATRVGDRAVTAVGLLIAAGGFYLIAQWPADVLESRHDLGFVSLPTLDTDLAIAGFGLGLVIAPLTSAALRVVPAAQHGIASAAVVVARMIGMLIGIAALSAWGLYRFNQYLKEQLAALPPAPADFPGGQMAGQMMRLRTATVQAYVLQYGEIFAITAGLCVFGAVLGLFIAGRREHAEESADAVDGVSNARDRAPSA
notes: C-terminal fusion: 3C protease cleavage site, GFP, His10; residues of the 3C site may be left after cleavage; also called Rv1410 homologue from Mycobacterium hassiacum; MHAS2168^OUT; not shown: GFP, C-terminal, cleaved; His10, C-terminal, cleaved

In the experiment “MHAS2168” the target is B2. The experiment in a line: crystal structure; […]) at 20 °C; […]. The following applies: both partners purified.
For the next experiment, the target named is T1, megabody H2 (Mb_H2) ( | alpaca).
T1 construct: the first thirteen N-terminal residues that form the β-strand A of a nanobody, encoded by the vector pBXMBQ; not shown: His10, C-terminal, cleaved
The experiment can be described thus: cryo-EM structure. The following applies: both partners purified.

B1: nanobody H2 (Nb_H2) (VHH)
VHH: QGQLVESGGGLVQPGGSLRLSCADAGSIFNKFPMAWYRQAPGKERELVARISSGGSTNYADFVKGRFTISRDNAKSTLYLQMNSLKPEDTAMYYCARIINSASNIAYWGQGTRVTVSA
notes: alpaca-derived nanobody selected by phage display against MHAS2168; they are in PDB 8PNL chain B (and chain D); MBP and His-tag removed with 3C protease; not shown: His10, N-terminal, cleaved
On to B1, for which, in the experiment with MHAS2168, the binding result was “binds”.
B2: the binding result in the experiment with megabody H2 (Mb_H2) is “binds”.

These data come from publication PMC10576003 (Nature Communications, 2023).
